Reference: article doi:10.1101/2021.02.02.429416

What was measured:
Aflibercept [1] = test: ELISA
Aflibercept [2] = test: BLI

Substance: Human VEGF-A165 (ligand)
- EC50 (Aflibercept [1]): 1.69 nM
- Kd (Aflibercept [2]): 0.00269 nM

Substance: Human VEGF-A121 (ligand)
- EC50 (Aflibercept [1]): 1.63 nM
